Data on six molecules can be found in publication PMC4921775, “Transient Fcho1/2⋅Eps15/R⋅AP-2 Nanoclusters Prime the AP-2 Clathrin Adaptor for Cargo Binding” (Developmental Cell, 2016).

No end group written: not given here.

Experiment [1] addresses AP-2 α-appendage appendage (UniProt P17426). To be noted: cited from earlier work.
The target of experiment [2] is T1, FCHO1 μHD (purified, not on beads) (human, UniProt O14526 609-889).
T1 construct: human FCHO1 μ-homology domain (μHD); also called purified FCHO1 μHD; Hs FCHO1 μHD; source: purified
T1 sequence (looked up): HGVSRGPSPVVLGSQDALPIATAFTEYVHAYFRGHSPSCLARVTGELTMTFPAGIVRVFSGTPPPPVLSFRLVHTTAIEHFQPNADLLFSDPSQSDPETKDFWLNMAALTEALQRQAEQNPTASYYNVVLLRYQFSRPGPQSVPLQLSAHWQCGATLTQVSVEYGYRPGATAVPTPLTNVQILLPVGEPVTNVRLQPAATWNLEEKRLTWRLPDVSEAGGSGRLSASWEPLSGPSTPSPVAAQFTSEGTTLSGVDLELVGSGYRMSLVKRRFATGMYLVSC
Briefly: pull-down; purified FCHO1 μHD with ~50 μg of GST or GST fusion protein in the presence of carrier BSA; stained or immunoblotted with an anti-FCHO1 monoclonal antibody; Figure 1D. To be noted: both partners purified.

For experiment [3], the target named is T2, GST-FCHO1 μHD K877E + R879A (human, UniProt O14526 609-889, K877E | R879A).
T2 construct: also called K877E + R879A mutant; source: GST-fusion protein immobilised on glutathione-Sepharose; not shown: GST, N-terminal, kept
T2 sequence (looked up): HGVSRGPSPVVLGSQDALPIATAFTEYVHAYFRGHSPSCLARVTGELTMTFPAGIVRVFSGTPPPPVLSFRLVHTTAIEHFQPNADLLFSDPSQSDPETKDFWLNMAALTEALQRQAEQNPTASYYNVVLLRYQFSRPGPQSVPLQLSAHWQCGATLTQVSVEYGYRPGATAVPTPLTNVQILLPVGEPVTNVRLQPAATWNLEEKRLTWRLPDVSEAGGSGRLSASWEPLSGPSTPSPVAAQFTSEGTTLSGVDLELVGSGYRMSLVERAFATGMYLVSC
Briefly: pull-down; HeLa cell lysate with 250 μg (Figure 3F: the indicated amount) of GST or GST-μHD fusion proteins immobilised on glutathione-Sepharose; supernatant and pellet stained or immunoblotted; Figures 1G, 3E, 3F. To be noted: one partner purified.

Another experiment deals with T3, FCHO1 μHD R872A+S874G (Homo sapiens).
T3 chain: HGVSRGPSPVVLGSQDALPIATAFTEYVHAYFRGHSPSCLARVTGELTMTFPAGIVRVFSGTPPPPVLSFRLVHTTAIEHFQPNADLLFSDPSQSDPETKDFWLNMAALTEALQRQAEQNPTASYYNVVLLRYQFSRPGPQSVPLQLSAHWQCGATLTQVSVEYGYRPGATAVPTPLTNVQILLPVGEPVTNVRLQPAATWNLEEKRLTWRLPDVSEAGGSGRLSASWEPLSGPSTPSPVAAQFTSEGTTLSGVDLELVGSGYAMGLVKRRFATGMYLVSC
Briefly: ITC.

The target in experiment [4] is T1, FCHO1 μHD (purified, not on beads). As to the kind of experiment: ITC; repeated injection of EPS15 peptides into a temperature-controlled solution of μHD, Nano ITC instrument (TA Instruments); minimum of four runs. The following applies: both partners purified.
The target of experiment [5] is T4, FCHO1 μHD K877E + R879A (for ITC) (human, UniProt O14526 609-889, K877E | R879A).
T4 sequence (looked up): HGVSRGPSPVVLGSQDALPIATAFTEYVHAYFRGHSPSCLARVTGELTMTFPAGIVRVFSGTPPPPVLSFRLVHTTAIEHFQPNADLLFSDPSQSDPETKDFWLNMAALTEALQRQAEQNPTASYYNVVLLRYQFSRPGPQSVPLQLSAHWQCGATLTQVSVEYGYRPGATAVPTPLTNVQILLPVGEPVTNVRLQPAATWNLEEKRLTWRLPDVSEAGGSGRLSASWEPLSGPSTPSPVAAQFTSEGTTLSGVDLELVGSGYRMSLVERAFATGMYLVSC
Described as above. To be noted: both partners purified.

Experiment [6] concerns the target T5, FCHO1 μHD A629E (for ITC) (human, UniProt O14526 609-889, A629E).
T5 sequence (looked up): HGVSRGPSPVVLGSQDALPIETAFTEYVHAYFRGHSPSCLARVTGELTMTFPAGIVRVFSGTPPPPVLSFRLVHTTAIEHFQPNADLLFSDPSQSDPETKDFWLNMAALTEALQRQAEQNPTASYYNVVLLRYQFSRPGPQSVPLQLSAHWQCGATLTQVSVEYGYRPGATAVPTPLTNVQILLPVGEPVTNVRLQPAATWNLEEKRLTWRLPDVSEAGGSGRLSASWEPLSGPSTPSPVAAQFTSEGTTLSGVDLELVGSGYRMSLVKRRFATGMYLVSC
The experiment is described as above. To be noted: both partners purified.

Experiment [7] has as its target T6, FCHO1 μHD P627D + A629E (for ITC) (human, UniProt O14526 609-889, P627D | A629E).
T6 sequence (looked up): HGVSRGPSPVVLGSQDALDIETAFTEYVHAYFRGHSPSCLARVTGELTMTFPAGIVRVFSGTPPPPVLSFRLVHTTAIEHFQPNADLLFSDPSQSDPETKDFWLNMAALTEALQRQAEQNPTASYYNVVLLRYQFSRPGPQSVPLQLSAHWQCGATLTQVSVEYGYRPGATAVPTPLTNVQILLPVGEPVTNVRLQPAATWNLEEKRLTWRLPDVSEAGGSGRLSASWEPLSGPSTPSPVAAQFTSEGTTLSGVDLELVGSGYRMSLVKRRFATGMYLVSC
The experiment is described as above. The following applies: both partners purified.

Another experiment deals with T7, FCHO1 μHD S732D (Homo sapiens).
T7 chain: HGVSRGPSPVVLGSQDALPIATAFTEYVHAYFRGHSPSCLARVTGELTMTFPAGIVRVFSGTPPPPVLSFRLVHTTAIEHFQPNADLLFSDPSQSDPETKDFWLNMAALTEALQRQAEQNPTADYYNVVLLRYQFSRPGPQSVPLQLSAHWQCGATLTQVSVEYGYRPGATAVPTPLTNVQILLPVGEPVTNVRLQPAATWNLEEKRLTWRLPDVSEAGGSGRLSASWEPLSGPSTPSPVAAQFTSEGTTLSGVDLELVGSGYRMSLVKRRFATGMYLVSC
Briefly: ITC.

The next experiment has as its target T8, FCHO1 μHD R872M (Homo sapiens).
T8 chain: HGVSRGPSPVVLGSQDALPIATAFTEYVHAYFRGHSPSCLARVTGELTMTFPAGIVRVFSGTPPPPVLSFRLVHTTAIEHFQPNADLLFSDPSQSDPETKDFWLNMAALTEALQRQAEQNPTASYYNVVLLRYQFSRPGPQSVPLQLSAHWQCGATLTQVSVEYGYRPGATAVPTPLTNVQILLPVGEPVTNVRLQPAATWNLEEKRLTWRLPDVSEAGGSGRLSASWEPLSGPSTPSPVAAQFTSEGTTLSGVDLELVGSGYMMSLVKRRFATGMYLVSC
As to the kind of experiment: ITC.

The target of experiment [8] is T9, Danio rerio (Dr) Fcho1 μHD (Danio rerio (zebrafish)).
T9 chain: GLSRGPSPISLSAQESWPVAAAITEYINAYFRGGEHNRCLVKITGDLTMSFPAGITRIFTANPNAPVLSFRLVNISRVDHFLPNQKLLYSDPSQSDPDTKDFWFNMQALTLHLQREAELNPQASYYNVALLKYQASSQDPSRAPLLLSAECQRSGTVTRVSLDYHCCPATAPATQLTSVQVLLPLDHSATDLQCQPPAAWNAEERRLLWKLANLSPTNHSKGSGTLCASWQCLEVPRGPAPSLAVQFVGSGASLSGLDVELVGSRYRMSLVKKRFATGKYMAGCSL
Briefly: ITC.

Chain of AP-2 α-appendage appendage (P17426 740-977): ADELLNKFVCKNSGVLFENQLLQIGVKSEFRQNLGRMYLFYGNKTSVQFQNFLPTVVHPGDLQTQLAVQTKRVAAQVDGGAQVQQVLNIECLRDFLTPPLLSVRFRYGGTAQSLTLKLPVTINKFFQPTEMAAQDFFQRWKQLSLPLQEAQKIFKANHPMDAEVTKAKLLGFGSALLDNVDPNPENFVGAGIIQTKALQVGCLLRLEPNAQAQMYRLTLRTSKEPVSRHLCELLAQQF

For the molecule Eps15 DPF motif (from UniProt P42566), the Kd in experiment [1] is 200 µM.

B1: GST-EPS15 (615–636) (peptide)
chain: {GST}-TNLDFFQSDPFVGSDPFKDDPF
notes: source: GST-fusion protein immobilised on glutathione-Sepharose; not shown: GST, N-terminal, kept
For the molecule B1, the binding result in [2] is recorded as “binds”.

B2: EPS15 (epidermal growth factor pathway substrate 15) (natural protein, human (endogenous in HeLa), UniProt P42566 1-896, looked up)
chain: MAAAAQLSLTQLSSGNPVYEKYYRQVDTGNTGRVLASDAAAFLKKSGLPDLILGKIWDLADTDGKGILNKQEFFVALRLVACAQNGLEVSLSSLNLAVPPPRFHDTSSPLLISGTSAAELPWAVKPEDKAKYDAIFDSLSPVNGFLSGDKVKPVLLNSKLPVDILGRVWELSDIDHDGMLDRDEFAVAMFLVYCALEKEPVPMSLPPALVPPSKRKTWVVSPAEKAKYDEIFLKTDKDMDGFVSGLEVREIFLKTGLPSTLLAHIWSLCDTKDCGKLSKDQFALAFHLISQKLIKGIDPPHVLTPEMIPPSDRASLQKNIIGSSPVADFSAIKELDTLNNEIVDLQREKNNVEQDLKEKEDTIKQRTSEVQDLQDEVQRENTNLQKLQAQKQQVQELLDELDEQKAQLEEQLKEVRKKCAEEAQLISSLKAELTSQESQISTYEEELAKAREELSRLQQETAELEESVESGKAQLEPLQQHLQDSQQEISSMQMKLMEMKDLENHNSQLNWCSSPHSILVNGATDYCSLSTSSSETANLNEHVEGQSNLESEPIHQESPARSSPELLPSGVTDENEVTTAVTEKVCSELDNNRHSKEEDPFNVDSSSLTGPVADTNLDFFQSDPFVGSDPFKDDPFGKIDPFGGDPFKGSDPFASDCFFRQSTDPFATSSTDPFSAANNSSITSVETLKHNDPFAPGGTVVAASDSATDPFASVFGNESFGGGFADFSTLSKVNNEDPFRSATSSSVSNVVITKNVFEETSVKSEDEPPALPPKIGTPTRPCPLPPGKRSINKLDSPDPFKLNDPFQPFPGNDSPKEKDPEIFCDPFTSATTTTNKEADPSNFANFSAYPSEEDMIEWAKRESEREEEQRLARLNQQEQEDLELAIALSKSEISEA
notes: human EPS15, endogenous protein; also called native EPS15 dimer/tetramer
For B2, the “fold reduction of recovery against the wild-type μHD” value in experiment [3] is at least 25 fold.

B3: EPS15 616–638 peptide (peptide)
chain: NLDFFQSDPFVGSDPFKDDPFGK
Take B3: the Kd with FCHO1 μHD R872A+S874G is 77.4 µM.

B4: EPS15 616–638 peptide (peptide, UniProt P42566 616-638, looked up)
peptide: NLDFFQSDPFVGSDPFKDDPFGK
For the molecule B4, the Kd in experiment [4] is 2.7 µM; in [5], over 300 µM; in experiment [6], over 300 µM; in experiment [7] it was over 300 µM.

B5: EPS15 616–638 peptide (peptide)
peptide: NLDFFQSDPFVGSDPFKDDPFGK
Regarding B5, the values for the Kd (with FCHO1 μHD S732D; in the experiment with FCHO1 μHD R872M; in [8]) were 9.1 µM, 19.6 µM and 8.1 µM, respectively.
